Experiment in all cases: AUC
For assay [1], the target named is EYFP (Aequorea victoria).
In assay [2] the target is EYFP (Aequorea victoria). The source holds these as a separate data set.
Assay [3] concerns the target EGFP (Aequorea victoria).
The target of assay [4] is EGFP (Aequorea victoria). The source holds these as a separate data set.

Like-named read-outs stand apart in the source and are kept apart here.

One may read the stoichiometry N as the number of molecules, sites or subunits per partner or assembly. On to EYFP, for which the stoichiometry N with EYFP (Aequorea victoria) [1] and in the assay with EYFP (Aequorea victoria) [2] was 2 throughout.
Take EGFP: the stoichiometry N with EGFP (Aequorea victoria) [3] and with EGFP (Aequorea victoria) [4] was 2 in each case.

The record behind these values is article doi:10.1101/2024.10.04.616694.
